According to patent US12655441B2, “PPO polypeptides tolerant to PPO-inhibiting herbicides and use thereof” (QINGDAO KINGAGROOT CHEMICAL COMPOUND CO., LTD., priority 2021, dated 2026):

How the values were obtained:
[1] = system: OsPPO1; assay: In vitro enzyme activity test of OsPPO1 proteins (fluorescence, substrate protoporphyrinogen); type: biochemical, rice; conditions: enzyme 500 nM, protoporphyrinogen 0.125-16 μM, excitation 410 nm, detection 630 nm
Method: Protoporphyrinogen, a substrate catalyzed by PPO, was prepared by reducing protoporphyrin with sodium amalgam. 10 mg of protoporphyrin was dissolved in 10 mL solvent, added with 20% sodium amalgam at the rate of 0.2 g/mL, reacted for 2 hours, then filtered under the protection of nitrogen in dark place. After the reaction was completed, the reaction solution should become achromatic or light brown. The reaction solution was diluted by adding with reaction buffer (100 mM Tris-HCl, 1 mM EDTA, 5 mM DTT, 0.1% Tween 20/80), and 10% hydrochloric acid was used to adjust pH to about 8.0. […]
3) The constructed fusion expression vector pET28a-MBP-OsPPO1 was transferred into E. coli BL21 (DE3), subjected to induced-expression with 0.5 mM IPTG, then purified with the Ni-NTA column, afterwards subjected to thrombin digestion, dialysed, and purified secondly by dextrin-column and Ni-column. […] The collected strains were re-suspended with the Ni-buffer A (50 mM Tris pH 8.0, 500 mM NaCl, 50 mM imidazole), homogenized by high pressure cell homogenizer, and centrifuged at 4000×g at 4° C. for 30 minutes; the supernatant was purified with the Ni column, then the purity thereof was detected by SDS-PAGE. The thrombin enzyme was added according to the quantity of proteins, dialyzed with 50 mM Tris pH 8.0, 500 mM NaCl, 1 mM DTT buffer. […]

[2] = system: PPO-deficient Escherichia coli (ΔhemG); assay: PPO-deficient E. coli (ΔhemG) transformed by rice OsPPO1 mutant genes, growth on LB medium containing herbicide; conditions: 500 nM compound A

B1: Y425I: Amino-acid sequence of PPO1 from rice mutant (protein)
chain: MAAAAAAMATATSATAAPPLRIRDAARRTRRRGHVRCAVASGAAEAPAAPGARVSADCVVVGGGISGLCTAQALATKHGVGDVLVTEARARPGGNITTAERAGEGYLWEEGPNSFQPSDPVLTMAVDSGLKDDLVFGDPNAPRFVLWEGKLRPVPSKPGDLPFFDLMSIPGKLRAGLGALGVRAPPPGREESVEDFVRRNLGAEVFERLIEPFCSGVYAGDPSKLSMKAAFGKVWRLEDTGGSIIGGTIKTIQERGKNPKPPRDPRLPTPKGQTVASFRKGLTMLPDAITSRLGSKVKLSWKLTSITKSDNKGYALVYETPEGVVSVQAKTVVMTIPSYVASDILRPLSSDAADALSIFYYPPVAAVTVSYPKEAIRKECLIDGELQGFGQLHPRSQGVETLGTIYSSSLFPNRAPAGRVLLLNIIGGSTNTGIVSKTESELVEAVDRDLRKMLINPKAVDPLVLGVRVWPQAIPQFLIGHLDHLEAAKSALGKGGYDGLFLGGNYVAGVALGRCVEGAYESASQISDYLTKYAYK
modifications: Amino-acid sequence of PPO1 from rice mutant (OsPPO1 Y425I)
- enzyme activity relative to WT [1]: lower than WT
- growth of ΔhemG transformant on LB medium containing compound A, compared with the wild type [2]: grew normally
